Measured values as given in publication PMC8769549, “The intrinsically disordered SARS-CoV-2 nucleoprotein in dynamic complex with its viral partner nsp3a”.

Target: N234 (nucleoprotein domains N2-N3-N4) (SARS-CoV-2 (NC_045512.2), UniProt P0DTC9 47-364)
Test: NMR; 1D NMR; 100 uM RNA, 50 uM N234
Conditions: protein: recombinant; tags: N-terminal His6-TEV, cleaved; chain copies: 2; single strand

## AAAAAA (ssRNA) [polyA hexameric RNA]
  binding result: binds
